Reference: publication PMC12889889

Target: FcγRIIIa (V158 variant)

Riabni (rituximab-arrx), lot 1141263, untreated (antibody)
ADCC Reporter Bioassay (WIL2-S target cells, Jurkat/NFAT-luc + FcγRIIIa V158 effector cells), EC50 of luciferase induction: 13.6 ng/mL

Rituxan (rituximab), lot 3575428, untreated (antibody)
ADCC Reporter Bioassay (WIL2-S target cells, Jurkat/NFAT-luc + FcγRIIIa V158 effector cells), EC50 of luciferase induction: 9.3 ng/mL

Ruxience (rituximab-pvvr), lot GN4445, untreated (antibody)
ADCC Reporter Bioassay (WIL2-S target cells, Jurkat/NFAT-luc + FcγRIIIa V158 effector cells), EC50 of luciferase induction: 6.06 ng/mL

Truxima (rituximab-abbs), lot 1B1011, untreated (antibody)
ADCC Reporter Bioassay (WIL2-S target cells, Jurkat/NFAT-luc + FcγRIIIa V158 effector cells), EC50 of luciferase induction: 9.09 ng/mL
